From the nanobody polyreactivity screen of Harvey et al. (2022)

Assay: yeast display, Sf9 membrane polyspecificity reagent, FACS + sequencing; frameworks hold sequencing errors
How it was run: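 Genes from sorted yeast were amplified by colony PCR, read by MiSeq 2 × 250 sequencing and filtered on CDR length. These cells carried a synthetic nanobody library in Saccharomyces cerevisiae BJ5465 and were sorted by FACS into low and high (top ~1%) gates on anti-HA and streptavidin fluorescence. Polyreactivity is labelled according to the gate of origin.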

Sequence	polyreactivity (PSR sort gate)
QVQLVESGGGLVQAGGSLRLSCAASGKPMGWYRQAPGKERELVAAITYGGTTTYYADSVKGRFTISRDNAKNTVYLQMNSQKPEDTAVYYCAADYVFVATPLRYDYWGQGTQVTVSS	low polyreactivity
QVQLVESGGGLVQAGGSLLLSCAASGSIYVNNAMGWYRQAPGKERELVAAISRSGGSTYYADSVKGRFTISRDSAKKTVYLQMNSLKPEDTAVYYCATVHRSSTPPEFNYSGQGTQVTVSS	high polyreactivity
QFQLVESGGGLVQAGASLRLSCAASGSIFDLNALGWYRQAPGKDRELVAAITRDSGITYYADSVKGRFKISRDNAKNTVYLQMNSLKPEDTAVYYCAADADSSSGDSWGQGTQVTVSS	low polyreactivity
QVQLVESGGGLVQAGGSLRLSCAASGIIFPYSAMGWYRQAPGKERELVAAITSIDASTYYADSVKRRFTISRDNAKNTVYLHMNSLKPEDTAVYYCNATVFNLVLEYNYWGQGTQVTVSS	low polyreactivity
QVQLVESGGGLVQAGGSLRLSCAASGRTFYSYTMGWYRQAPGKERELVAAINRGGSTYYADSVKGRFTISRDNAKNTVYLQMNSLKPEDTAVYYCNVDWKVYGAPDYRIAWKYDYWGQGTQVTVSS	low polyreactivity
QVQLVESGGGLVQAGGSLRLSCAASGRTFPPYAMGWYRQAPGKERELVAANSWSGGSTYYADSVKGRFTISRDNAKNTVYLQMNSLKPEDTAVYYCAKATRDRGRYYYWGQGTQVTVSS	high polyreactivity
QVQLVESGGGLVQAGGSLRLSCAASGSIFGYYARGWYRQASGKESELVADITSSGSTYYADSVKGRFTISRDNAKNTVYLQMNSLKPEDTAVYYCAADQYFLGSIDGFEYWGQRTQVTVSS	low polyreactivity
QVQLVESGGGLVQAGGSLRLSCAASGIIFGDNAMGLYRQEPGKERELVATISSSASTNYADSVKGRFTISRDNAKNTVYLQMNSLKPEDTAVYYCAADVYSPPNYDYWGQGTQVTVSS	low polyreactivity
QVQLVESGGGLVQAGGSLRLSCAASGSTFTTNAMGWYRQAPGKEREFVAAITRSSGSTYYADSVKGRFTISRDNAKNTVYLQMNSLKPEDTAVYYCAAAYRQNPSQSKSRFGYWGQGTQVTVSS	high polyreactivity
QVQLLESGGGLVQAGGSLRLSCAASGYTFASYAMGWYRQAPGKERELVASISNGGGTNYADSVKGLFRISRDNAKNTVYLQMNSLKPEDTAVYYCAKRYRYYSHSYYYWGQCTQVTVSS	high polyreactivity
QVQLVESGGGLVQAGRSLRLSCAASGFTFETYAMGWYRQAPGKERELVAAISDGGGDTYYADSVKGRFTISRDNAKNTVYLLMNSLKPEDSAVYYCAAEWDGNWSRGAGGYDYWGQGTQVTVSS	low polyreactivity
QVQLVESGGGLVQAGGSLRLSCAASGRTFGRYAMGWYRQAPGKAREFVAAISSSGGSTSYADSVKGRFTISRDNAKNTVYLQMNSLKPEDTAVYYCNADAYRITRYGYDYWGQGTQVTVSS	high polyreactivity
QVQLVESCGALVQAGGSLLLSCAASGRTFVVNDMGWYRHAPWKERELVATINVSGGSTSYEDSVKGRFTISRDNGKYTVYLQMTSLKPEDTAVYYCNVDTYVEYPHDYWGQGTQVTVSS	low polyreactivity
QVQLEESGRGLVQAGGSLRLSCAASGNTLGYNAMGWYRQAPGKVRELVATFRGSGGITYYADSVKGRFTISRDNALNTVYLQMNSLKPEDTAVYYCANVYKSRVKGDHWGQGTQVTVSS	low polyreactivity
QFQLVESGGGLVQAGGSLRLSCAASGIIFHIYAMGWYRQAPGKERELVAAISTGSSTYYADSVKGRFTISRDNAKNTVYLQMNSLKPEDTSVSYCNAVSRYLWVKGFDYWGQGTQVTVSS	low polyreactivity
QVQLVESGGGLVQAGGSLRLSCAASGFIFRLYALGWYRQAPGKERELVAAIRSAGSTYYADSVKGRFTISRDNAKNTVYLQMNSLKPEDTPVYYCAARSGHTYYFIGNYWGQGTQVTVSS	high polyreactivity
